Two substances from patent US10808017B2, “Ubiquitin variants and uses therof as 53BP1 inhibitors” (The Governing Council of the University of Toronto, priority 2016, dated 2020) can be followed below.

The target of one data set is T1, RBMXL1 (Homo sapiens, UniProt Q96E39).
T1 construct: endogenous in cells; host or cells: HEK293 Flp-In/T-REx cells
Description: Flag IP-MS of i53/i53-DM baits: prey RBMXL1. It is filed as binding. As to conditions: 293T Flp-In/T-Rex extracts, LC-MS/MS, one column per replicate IP. How it is done:
(§1) Following immunoprecipitation of Flag-tagged i53 and i-53-DM from HEK293 Flp-In/T-REx cells, peptides were identified using LC-MS/MS. Proteins were digested in solution with trypsin (Sigma, T7575-1KT) and dried to completeness. For LC-MS/MS analysis, peptides were reconstituted in 5% formic acid and loaded onto a 12-15 cm fused silica column with pulled tip packed in-house with 3.5 μm Zorbax C18 (Agilent Technologies, Calif., USA).
(§2) i53 and i53-DM precipitates were analyzed using an LTQ (Thermo Scientific) coupled to an Agilent 1100 Series HPLC (Agilent Technologies). Peptides were eluted from the column using a 90 min period cycle with a linear gradient from 0% to 40% ACN in 0.1% formic acid. Tandem MS spectra were acquired in a data-dependent mode for the top 5 (LTQ) most abundant ions using collision-induced dissociation. Acquired spectra were searched against the human Refseq_V53 database using Mascot (Matrix Science).
(§3) 293T Flp-In/T-Rex cell lines were generated that expressed Flag-tagged i53 or i53-DM under the control of a tetracycline-inducible promoter as previously described. Nine IP-MS experiments were analyzed (3 biological replicate IPs each for control i53- and i53-DM expressing cell lines). The interacting proteins were identified by MASCOT to identify high-confidence interactors for i53. […]

The next data set has as its target T2, KRT6A (Homo sapiens, UniProt P02538).
T2 construct: Following immunoprecipitation of Flag-tagged i53 and i-53-DM from HEK293 Flp-In/T-REx cells, peptides were identified using LC-MS/MS; endogenous in cells; host or cells: HEK293 Flp-In/T-REx cells
T2 sequence (P02538 1-564): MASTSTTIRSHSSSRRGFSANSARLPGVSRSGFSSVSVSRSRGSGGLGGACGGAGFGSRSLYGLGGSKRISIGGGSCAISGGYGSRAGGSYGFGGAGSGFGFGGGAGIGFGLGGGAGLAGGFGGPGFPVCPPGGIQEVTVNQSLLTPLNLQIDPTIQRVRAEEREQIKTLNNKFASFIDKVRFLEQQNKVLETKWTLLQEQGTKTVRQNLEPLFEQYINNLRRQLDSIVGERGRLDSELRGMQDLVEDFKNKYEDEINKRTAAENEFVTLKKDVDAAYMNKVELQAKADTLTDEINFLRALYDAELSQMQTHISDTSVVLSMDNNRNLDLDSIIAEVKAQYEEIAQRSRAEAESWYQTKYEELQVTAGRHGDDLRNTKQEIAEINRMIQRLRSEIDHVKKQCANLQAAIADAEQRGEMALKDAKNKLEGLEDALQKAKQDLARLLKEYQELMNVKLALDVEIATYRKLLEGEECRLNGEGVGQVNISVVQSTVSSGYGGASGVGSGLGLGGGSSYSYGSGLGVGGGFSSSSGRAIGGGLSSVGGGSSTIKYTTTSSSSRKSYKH
Description: Flag IP-MS of i53/i53-DM baits: prey KRT6A. In kind it is binding. To be noted: 293T Flp-In/T-Rex extracts, LC-MS/MS, one column per replicate IP. How it is done:
as §1, §2, §3

For data set [1], the system named is gene conversion (HR) in U2OS DR-GFP cells. Description: Direct-repeat (DR)-GFP gene conversion assay. It is filed as cell-based, human. Here is the method:
FIG. 4. Activation of HR by i53. FIG. 4A, Schematic of the DR-GFP assay. FIG. 4B. U2OS DR-GFP cells were transfected with the vectors expressing i53, the DM mutant or an empty vector control (EV) along with an I-Scel expression vector. The percentage of GFP-positive cells was determined 48 h post-transfection for each condition and was normalized to the empty vector condition (mean±s.d., N=4). FIG. 4C, U2OS DR-GFP were first transfected with siRNAs targeting the 53BP1 or BRCA1 mRNAs along with a non-targeting siRNA (CTRL). 24 h post-transfection, cells were transfected with the I-SceI expression vector and the percentage of GFP-positive cells was determined 48 h post-siRNA transfection for each condition. The values were normalized to the empty vector condition and presented as the mean±s.e.m; N=4. FIG. 4D, Schematic of the gene targeting assay. FIG. 4E, Gene targeting efficiency at the LMNA locus in parental or 53BP1Δ U2OS cells following transfection with vectors expressing Flag-tagged i53 or its DM mutant or an empty vector control (EV). The DNA-PK inhibitor NU7441 was also added where indicated. 24 h post-transfection, cells were analysed for mClover fluorescence. Individual experiments are presented with the error bar representing the s.d., (N=3). FIG. 4F, Gene targeting at the LMNA locus in G 1-arrested parental (WT) or 53BP1Δ U2OS cells transfected with vectors expressing Flag-tagged i53 or its DM mutant or an empty vector control (EV). The DNA-PK inhibitor NU7441 was also added in the indicated conditions. 24 h post-transfection, cells were analysed for mClover fluorescence. Individual experiments are present with the error bar representing the s.d., (N=3).
The direct repeat (DR)-GFP assay to measure the frequency of HR and the strand annealing EJ2-GFP assay to measure the frequency of MMEJ were performed as previously described. Briefly, U2OS DR-GFP or U2OS EJ2-GFP cells were transfected with 10 nM siRNA (Dharmacon) using Lipofectamine RNAiMAX (Invitrogen). 24 h later, the cells were transfected with the pCBASceI plasmid (Addgene #26477) and plasmids, using Lipofectamine 2000 (Invitrogen). 48 h post-plasmid transfection, the cells were trypsinized and the percentage of GFP-expressing cells was analyzed using the BD FACSCalibur flow cytometer.
AAV-293 cells (Agilent) were transfected with pAAV expression, pDJ and pHelper constructs (Cell Biolabs, Inc., USA) in equal amounts using PEI to produce AAV-DJ expression viruses. 48-72 h later, the viral supernatant was used to transduce target cells for 24 h, and assays were initiated a further 24 h later.

“Also recorded” adds a separate entry of the source.

T1 sequence (Q96E39 whole entry): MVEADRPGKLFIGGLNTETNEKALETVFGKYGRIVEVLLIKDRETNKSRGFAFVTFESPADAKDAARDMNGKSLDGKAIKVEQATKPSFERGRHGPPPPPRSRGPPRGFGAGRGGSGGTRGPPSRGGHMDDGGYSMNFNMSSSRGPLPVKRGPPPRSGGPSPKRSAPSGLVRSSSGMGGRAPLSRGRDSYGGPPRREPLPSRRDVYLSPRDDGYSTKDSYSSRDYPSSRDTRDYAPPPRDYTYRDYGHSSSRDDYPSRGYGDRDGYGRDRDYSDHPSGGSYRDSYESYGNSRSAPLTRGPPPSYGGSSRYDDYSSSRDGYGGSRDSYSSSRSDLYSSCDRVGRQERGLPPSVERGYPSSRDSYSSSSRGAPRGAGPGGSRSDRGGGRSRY

For the substance “i53-DM: 53BP1-binding deficient mutant of i53 (P69L, L70V)”, in the data set with RBMXL1, the “Total peptides, RBMXL1” value is 3. Further, in the data set with KRT6A, the “Total peptides, KRT6A” value is 3.

Turning to “i53: UbvG08 with C-terminal di-glycine removed and I44A mutation; genetically encoded inhibitor of 53BP1”, the “Homologous recombination in DR-GFP gene conversion assay after AAV-mediated delivery” value in data set [1] (AAV-DJ delivery, versus Flag-i53-DM) is “stimulate homologous recombination”. The “Gene conversion in DR-GFP assay (comparison in words)” value in data set [1] (SCR7 at 1 μM, i53 by plasmid expression) was “more potent inducer of gene conversion; also recorded: stimulated gene conversion more than 53BP1 depletion by siRNA”.
